The text below walks through data of patent US20200030452A1, “Process for the Manufacture of a Tumor-Vasculature Targeting Antitumor Agent” (priority 2016, published 2020).

Holding throughout (format): in vivo
Series [1] relates to human colon HCT116 tumors. As to the kind of experiment: IF7-SN38 injected intravenously into nude mice carrying human colon HCT116 tumors. Particulars: intravenous, low dosages.
Series [2] can be described thus: Crossing of the blood brain barrier. Particulars: by passive transcytosis mechanism. The text has this:
(§1) Therefore, using our targeted therapy, a small amount of IF7-SN38 is required to be injected to patients. The efficiency of IF7-SN38 is unprecedented in mice, in particular for the brain malignancies. […] It is believed that IF7-SN38 would work far better than PEGylated SN38 by targeting malignant tumors including brain malignancy. The low dosage, specificity, and easily degrading nature of IF7-SN38 in targeted cells to release SN38, are the major factors for the superiority of our drug to PEG-SN38.

Series [3] concerns tumors. Description: Treatment of mice with tumors using IF7-SN38.
Text: as §1

The structures appear in SMILES notation. Residues, ends and D or L forms follow the SMILES beside them. *: point of attachment. X1 = CCc1c2c(nc3ccc(OC(=O)[C@H]4CC[C@H](CNC(=O)[C@H]5CC[C@H](CN6C(=O)CC(*)C6=O)CC5)CC4)cc13)-c1cc3c(c(=O)n1C2)COC(=O)[C@]3(O)CC

Take `CCc1c2c(nc3ccc(OC(=O)[C@H]4CC[C@H](CNC(=O)[C@H]5CC[C@H](CN6C(=O)CC(SC[C@H](NC(=O)[C@H](CCCNC(=N)N)NC(=O)[C@H](CCC(N)=O)NC(=O)[C@H](Cc7c[nH]c8ccccc78)NC(=O)[C@H](CC(C)C)NC(=O)[C@H](CC(C)C)NC(=O)[C@H](Cc7ccccc7)NC(=O)[C@@H](N)[C@@H](C)CC)C(=O)N[C@@H](CCCNC(=N)N)C(=O)N[C@@H](CCCNC(=N)N)C(=O)O)C6=O)CC5)CC4)cc13)-c1cc3c(c(=O)n1C2)COC(=O)[C@]3(O)CC` (stereo partly drawn) [IF7-SN38] (H-IFLLWQRC(X1)RR-OH; N-terminus and C-terminus assumed): the side effects result in series [1] is recorded as “no apparent side effects”. Also, the blood brain barrier entry in series [2] is reported as “overcomes blood brain barrier”. Moreover, the “side effects in the treated mice” value in series [3] is “without producing any side effects”.
